Test results: patent publication US20050058645A1 (ZENYTH OPERATIONS, published 2005)

What was measured:
mouse IL-13Rα1 = target: T1, mouse IL-13Rα1 (mouse, UniProt O09030 26-340, limits assumed); assay: Western blot
T1 sequence (looked up): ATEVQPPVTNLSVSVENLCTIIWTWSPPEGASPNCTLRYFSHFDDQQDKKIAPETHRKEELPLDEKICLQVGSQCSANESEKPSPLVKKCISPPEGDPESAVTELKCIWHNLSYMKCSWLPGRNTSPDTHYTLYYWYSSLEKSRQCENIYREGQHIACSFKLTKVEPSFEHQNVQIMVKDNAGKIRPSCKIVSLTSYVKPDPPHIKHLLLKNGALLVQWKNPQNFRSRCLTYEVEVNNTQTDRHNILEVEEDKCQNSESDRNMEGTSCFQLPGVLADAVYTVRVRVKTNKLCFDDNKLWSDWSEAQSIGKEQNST

[1] = target: T2, FLAG-tagged IL-13Rα1-gp130 chimeric receptor (human); assay: Western blot of lysates of transfected COS cells after SDS-PAGE, probed with mAb 1D9
T2 construct: Extracellular domain of human IL-13Rα1 fused to transmembrane and cytoplasmic domains of gp130; On 293A12-derived cells (lines 3.1.2, 3.2.4) in the reporter assay; in COS cell lysates in the Western blot; also called IL-13Rα1-gp130 fusion; IL13Rα1/gp130 chimera
T2 chain: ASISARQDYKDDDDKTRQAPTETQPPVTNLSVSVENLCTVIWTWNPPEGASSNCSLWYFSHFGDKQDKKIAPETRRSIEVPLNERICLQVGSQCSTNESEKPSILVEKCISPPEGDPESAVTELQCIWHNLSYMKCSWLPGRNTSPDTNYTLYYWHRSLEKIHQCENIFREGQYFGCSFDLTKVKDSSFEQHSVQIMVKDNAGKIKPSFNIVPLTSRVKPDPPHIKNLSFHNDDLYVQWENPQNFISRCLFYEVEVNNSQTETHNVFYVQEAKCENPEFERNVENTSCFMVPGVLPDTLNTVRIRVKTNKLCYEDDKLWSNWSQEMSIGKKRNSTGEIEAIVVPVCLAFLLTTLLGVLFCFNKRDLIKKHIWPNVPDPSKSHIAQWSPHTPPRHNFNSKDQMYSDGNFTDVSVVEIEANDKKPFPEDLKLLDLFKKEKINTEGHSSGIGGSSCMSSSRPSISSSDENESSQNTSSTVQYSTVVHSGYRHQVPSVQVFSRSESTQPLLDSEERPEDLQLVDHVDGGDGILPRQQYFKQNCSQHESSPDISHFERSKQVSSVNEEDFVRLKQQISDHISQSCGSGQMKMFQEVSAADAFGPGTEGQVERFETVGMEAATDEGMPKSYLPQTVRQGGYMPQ
Description: FIG. 3 is a photographic representation showing transient expression of chimeric receptor constructs in COS cells. COS cells were transfected with pEFBOS encoding FLAG-tagged IL-13Rα1-gp130, FLAG-tagged IL-4Rα-gp130 (two independent clones) or control β-gal. Cell lysates were recovered at 72 hrs and after SDS-PAGE and Western transfer, probed with either an anti-FLAG antibody or the IL-13Rα1-specific mAb 1D9.

[2] = target: T3, chimeric mouse IL-13Rα1-Fc (mouse; human, UniProt O09030 26-340); assay: Biosensor blocking assay: mouse IL-13Rα1-Fc at 2 ug/ml pre-incubated 1 hour with titrated 1D9, then passed over immobilised IL-13
T3 construct: extracellular domain; Bought (R & D Systems); Preformed disulphide-bonded dimer; also called mIL-13Rα1-Fc; chimeric mouse receptor; not shown: Fc portion of human IgG
T3 sequence (looked up): T1 sequence (looked up)
Protocol: (§1) Initially mouse mAb 1D9 is tested for its ability to inhibit the interaction of the chimeric human and mouse IL-13Rα1-Fc with IL-13 using both an ELISA- and Biosensor-based approach. […] Identical results are obtained with the ELISA-based assay. 1D9 is a potent inhibitor of the chimeric human receptor, compared with a control mAb, but has no effect on the binding of the chimeric mouse receptor to mouse IL-13 (FIG. 6). The Biosensor study incorporated a 1D9 dose-response analysis and a further dose-response analysis was undertaken using the ELISA.

[3] = target: T4, chimeric human IL-13Rα1-Fc (human, UniProt P78552 22-343); assay: Biosensor blocking assay: human IL-13Rα1-Fc at 2 ug/ml pre-incubated 1 hour with titrated 1D9, then passed over immobilised human IL-13 (the blocked ligand)
T4 construct: Bought (R & D Systems); Extracellular domain of IL-13Rα1 fused to Fc of human IgG; Expressed as preformed disulphide-bonded dimer; also called hIL-13Rα1-Fc; chimeric human receptor; not shown: Fc portion of human IgG
T4 sequence: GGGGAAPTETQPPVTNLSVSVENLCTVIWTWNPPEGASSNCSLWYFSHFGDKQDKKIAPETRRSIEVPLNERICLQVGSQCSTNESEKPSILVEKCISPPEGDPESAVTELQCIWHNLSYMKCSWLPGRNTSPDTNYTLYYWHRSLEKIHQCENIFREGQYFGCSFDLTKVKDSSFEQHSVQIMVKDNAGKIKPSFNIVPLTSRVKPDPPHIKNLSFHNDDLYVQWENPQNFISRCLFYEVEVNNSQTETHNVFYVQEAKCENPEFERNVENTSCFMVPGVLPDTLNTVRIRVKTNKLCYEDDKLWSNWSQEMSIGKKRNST
Protocol: as §1

[4] = target: T4, chimeric human IL-13Rα1-Fc; assay: ELISA; 1D9 dose-response, inhibition of chimeric human IL-13Rα1-Fc binding to plate bound IL-13; ELISA dose-response; inhibition of chimeric human IL-13Rα1-Fc binding to IL-13
Protocol: as §1

binding result (mouse IL-13Rα1): no binding | binding result [1]: binds | binding result [2]: no binding (tested: about 50 µg/ml) | IC50 (read off the curve) [3]: ~2 µg/mL | IC50 [4]: ~20 nM
B1: murine monoclonal antibody 1D9 (antibody, IgG1, V domains shown)
VH: EVKLVESGGGLVKPGGSLKLSCAASGFTFSGYGMSWVRQTPEKRLEWVATISGLGGYTYYPDSVKGRFTISRDNAKNTLYLQMSSLRSDDTAFYYCARRFYGDYVGAMDYWGQGTSVTVSS
VL: DILMTQAAFSNPVTLGTSASISCRSSKSLLHSNGITYLYWYLQKPGQSPQLLIYQMSNLASGVPDRFSCSGSGTDFTLSISRVEAEDVGFYYCAQNLELPFTFGSGTKLEIE
notes: Murine hybridoma antibody (ECACC 03032101); also called mAb 1D9; mouse mAb 1D9
